Here are results for 1 substance from article PMC4642984.

For test [1], the target named is ELucC-BMAL1 deletion mutant Bd5 (mouse) (UniProt Q9WTL8). The test is described as follows: split reporter (BiFC, NanoBiT); Split Luc complementation in living Cos7 cells transfected with ELucN-CK2β and ELucC-BMAL1 (WT or mutant) together with pcDNA, Myc-HA-CRY1, Myc-CRY2 or FLAG-CRY1 (WT or Cd1-4); real-time bioluminescence, averaged peak values.
The target of test [2] is ELucC-BMAL1 deletion mutant Bd4 (mouse) (UniProt Q9WTL8). The description is as above.
ELucC-BMAL1 deletion mutant Bd4 (mouse), sequence (Q9WTL8 other isoform, or with tags, fused parts or gaps, stated change not applied): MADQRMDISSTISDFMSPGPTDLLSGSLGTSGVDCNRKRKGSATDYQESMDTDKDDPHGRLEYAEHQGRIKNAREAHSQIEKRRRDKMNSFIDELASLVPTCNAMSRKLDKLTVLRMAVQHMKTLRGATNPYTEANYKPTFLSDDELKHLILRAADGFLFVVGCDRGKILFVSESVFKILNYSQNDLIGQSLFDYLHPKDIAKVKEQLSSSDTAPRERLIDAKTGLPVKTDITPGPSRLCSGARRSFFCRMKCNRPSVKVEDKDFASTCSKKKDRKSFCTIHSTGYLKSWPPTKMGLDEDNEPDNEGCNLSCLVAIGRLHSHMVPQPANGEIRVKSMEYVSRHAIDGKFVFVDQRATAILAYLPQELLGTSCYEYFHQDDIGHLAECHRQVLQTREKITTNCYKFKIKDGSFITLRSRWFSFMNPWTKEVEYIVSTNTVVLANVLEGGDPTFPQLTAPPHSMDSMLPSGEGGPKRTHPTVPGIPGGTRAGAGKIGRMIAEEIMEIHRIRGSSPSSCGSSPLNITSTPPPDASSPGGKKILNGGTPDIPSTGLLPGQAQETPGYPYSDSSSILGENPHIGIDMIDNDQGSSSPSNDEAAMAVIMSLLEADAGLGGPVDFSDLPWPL

ELucN-CK2β, sequence (P67870 whole entry): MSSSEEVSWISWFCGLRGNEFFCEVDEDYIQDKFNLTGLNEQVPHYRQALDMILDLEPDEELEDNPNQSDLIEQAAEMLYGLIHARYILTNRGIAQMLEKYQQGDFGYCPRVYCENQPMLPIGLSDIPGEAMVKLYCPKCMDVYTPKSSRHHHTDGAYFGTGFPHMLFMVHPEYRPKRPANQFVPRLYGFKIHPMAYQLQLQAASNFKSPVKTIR
ELucC-BMAL1 deletion mutant Bd5 (mouse), sequence (Q9WTL8 other isoform, or with tags, fused parts or gaps, stated change not applied): as the sequence (Q9WTL8 other isoform, or with tags, fused parts or gaps, stated change not applied) above

Turning to “ELucN-CK2β (from UniProt P67870 1-215) (natural protein)”, the Split Luc bioluminescence, percent of BMAL1-WT in test [1] came to 30%. The substance further registered a Split Luc bioluminescence, fold of BMAL1-WT in test [2] of 2 fold.
